Source: patent US20210145976A1 (ARO BIOTHERAPEUTICS, published 2021)

Assays:
[1] = target: T1, recombinant biotinylated CD71 extracellular domain (Sino Biologics) with an N-terminal 6His tag (human, UniProt P02786 89-760, biotinylated (sites not given)); assay: screening ELISA, ratio
T1 construct: extracellular domain; also called hCD71; huCD71

[2] = target: T1, recombinant biotinylated CD71 …; assay: screening ELISA
[3] = target: CD71 on SK-BR-3 cells (human, UniProt P02786 1-760); assay: cell-based or functional assay
Chain of CD71 on SK-BR-3 cells (P02786 whole entry): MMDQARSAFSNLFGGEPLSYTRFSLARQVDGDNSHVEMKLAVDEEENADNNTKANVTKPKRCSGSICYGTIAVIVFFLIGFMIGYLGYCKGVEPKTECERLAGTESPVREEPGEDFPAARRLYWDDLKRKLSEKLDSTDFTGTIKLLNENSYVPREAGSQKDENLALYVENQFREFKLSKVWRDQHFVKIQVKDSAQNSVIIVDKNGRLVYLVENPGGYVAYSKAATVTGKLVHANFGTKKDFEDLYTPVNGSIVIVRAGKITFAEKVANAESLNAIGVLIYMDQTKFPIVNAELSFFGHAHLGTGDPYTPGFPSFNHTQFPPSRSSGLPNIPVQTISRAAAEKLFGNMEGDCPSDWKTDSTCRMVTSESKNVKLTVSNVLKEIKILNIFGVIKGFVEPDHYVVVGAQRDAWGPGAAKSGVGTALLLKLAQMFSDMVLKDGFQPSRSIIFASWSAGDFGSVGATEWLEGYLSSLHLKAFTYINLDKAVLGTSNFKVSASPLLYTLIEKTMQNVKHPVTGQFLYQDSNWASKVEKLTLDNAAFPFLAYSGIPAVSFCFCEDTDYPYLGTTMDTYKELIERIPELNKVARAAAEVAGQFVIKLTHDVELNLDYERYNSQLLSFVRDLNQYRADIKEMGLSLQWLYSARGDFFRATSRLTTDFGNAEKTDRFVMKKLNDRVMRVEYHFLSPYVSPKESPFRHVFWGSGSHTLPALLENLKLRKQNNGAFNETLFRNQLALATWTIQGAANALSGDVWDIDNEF

T1 sequence (P02786 other isoform, or with tags, fused parts or gaps): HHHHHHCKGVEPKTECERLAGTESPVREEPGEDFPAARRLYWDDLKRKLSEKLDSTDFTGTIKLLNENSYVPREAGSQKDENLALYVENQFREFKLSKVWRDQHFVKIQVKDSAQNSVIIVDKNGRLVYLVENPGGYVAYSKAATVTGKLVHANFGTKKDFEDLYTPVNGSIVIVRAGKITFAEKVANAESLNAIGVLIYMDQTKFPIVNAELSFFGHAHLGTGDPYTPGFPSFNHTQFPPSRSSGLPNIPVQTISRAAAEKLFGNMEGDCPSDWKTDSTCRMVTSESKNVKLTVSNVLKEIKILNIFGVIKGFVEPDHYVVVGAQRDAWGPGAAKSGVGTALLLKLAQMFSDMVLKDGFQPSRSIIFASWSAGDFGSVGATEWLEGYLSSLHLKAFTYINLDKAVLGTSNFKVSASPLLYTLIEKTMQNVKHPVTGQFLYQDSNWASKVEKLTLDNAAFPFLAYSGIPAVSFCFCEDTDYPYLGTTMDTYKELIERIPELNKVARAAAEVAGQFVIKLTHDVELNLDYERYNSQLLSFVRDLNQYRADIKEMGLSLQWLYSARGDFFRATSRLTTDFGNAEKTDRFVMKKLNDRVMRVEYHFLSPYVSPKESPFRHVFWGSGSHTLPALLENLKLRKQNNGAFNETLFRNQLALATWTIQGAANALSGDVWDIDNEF

Binder | hCD71:HSA [1] | hCD71 [2] | IC50, SKBR-3 viability, MMAF conjugate, second unlabelled column (+/- human transferrin) [3] [nM] | IC50, SKBR-3 viability, MMAF conjugate, first unlabelled column (+/- human transferrin) [3] [nM]
SEQ ID NO 301 (designed binder, FN3 domain) MLPAPKNLVVSRVTEDSARLSWTAPDAAFDSFEIEYDEPYRGGEAIVLTVPGSERSYDLTSLKPGTEYPVSIGGVKGGITSDPLSAIFTT | 55 | 660000 | – | –
SEQ ID NO 85 (designed binder, FN3 domain) MLPAPKNLVVSRVTEDSARLSWTAPDAAFDSFFIWYWEKSVDGEAIVLTVPGSERSYDLTGLKPGTEYNVGIQGVKGGTPSDPLSAIFTT | 1160 | 2.91e+06 | 89 | –
SEQ ID NO 149 (designed binder, FN3 domain) MLPAPKNLVVSRVTEDSARLSWTAPDAAFDSFIIPYAEVRPDGEAIVLTVPGSERSYDLTGLKPGTEYSVLIHGVKGGKLSEPLSAIFTT | 826 | 2.77e+06 | 5.5 | 9.7
SEQ ID NO 146 (designed binder, FN3 domain) MLPAPKNLVVSRVTEDSARLSWTAPDAAFDSFYIAYAEPRPDGEAIVLTVPGSERSYDLTGLKPGTEYSVLIHGVKGGLLSSPLSAIFTT | 809 | 3.07e+06 | 3.46 | 7.13
SEQ ID NO 136 (designed binder, FN3 domain) MLPAPKNLVVSRVTEDSARLSWTAPDAAFDSFFIYYIESYPAGEAIVLTVPGSERSYDLTGLKPGTEYWMGIDGVKGGRWSTPLSAIFTT | 706 | 4.03e+06 | 0.503 | 2.32
SEQ ID NO 284 (designed binder) MLPAPKNLVVSRVTEDSARLSWTAPDAAFDSFFIGYLEPQPPGEAIVLTVPGSERSYDLTGLKPGTEYNVTIQGVKGGFPSMPLSAIFTT | – | – | 32 | 98
SEQ ID NO 96 (designed binder) MLPAPKNLVVSRVTEDSARLSWTAPDAAFDSFFIGYLEPQPPGEAIVLTVPGSERSYDLTGLKPGTEYNVTIQGVKGGFPSMPLSAIFTT | – | – | 27 | 79.5
SEQ ID NO 152 (designed binder, FN3 domain) MLPAPKNLVVSRVTEDSARLSWTAPDAAFDSFFIGYLEPQPPGEAIVLTVPGSERSYDLTGLKPGTEYNVTIQGVKGGFPSSPLSAIFTT | 534 | 2.83e+06 | 5.24 | 19.6
SEQ ID NO 297 (designed binder, FN3 domain) MLPAPKNLVVSRVTEDSARLSWTAPDAAFDSFLIPYAETSPSGEAITLFVPGSERSYDLTGLKPGTEYNVVIQGVKGGRPSNPLVAASTT | 49 | 2.59e+06 | – | –
SEQ ID NO 260 (designed binder, FN3 domain) MLPAPKNLVVSRVTEDSARLSWTAPDAAFDSFNISYYEYFVHGEAIVLTVPGSERSYDLTGLKPGTEYYVIDGVKGGDPSEPLSAIFTT | 90 | 1.3e+06 | – | –
SEQ ID NO 266 (designed binder, FN3 domain) MLPAPKNLVVSRVTEDSARLSWTAPDAAFDSFMIRYQEGTRWGEAIVLTVPGSERSYDLTGLKPGTEYIVMIAGVKGGQISLPLSAIFTT | 337 | 894000 | – | –
SEQ ID NO 270 (designed binder, FN3 domain) MLPAPKNLVVSRVTEDSARLSWTAPDAAFDSFLIRYQEWQRWGEAIVLTVPGSERSYDLTGLKPGTEYTVHIAGVKGGMLSLPLSAIFTT | 754 | 1.81e+06 | – | –
SEQ ID NO 269 (designed binder, FN3 domain) MLPAPKNLVVSRVTEDSARLSWTAPDAAFDSFHINYAEVYTKGEAILLTVPGSERSYDLTGLKPGTEYEVYIPGVKGGPFSRPLNAQFTT | 166 | 690000 | – | –
SEQ ID NO 249 (designed binder, FN3 domain) MLPAPKNLVVSRVTEDSARLSWTAPDAAFDSFSIDYFESVGFGEAIVLTVPGSERSYDLTGLKPGTEYDVQITGVKGGPHSLPLSAIFTT | 148 | 1.05e+06 | – | –
SEQ ID NO 299 (designed binder, FN3 domain) MLPAPKNLVVSRVTEDSARLSWTAPDAAFDSFLIEYWESVGYGEAIVLTVPGSERSYDLTGLKPGTEYWVGIYGVKGGYYSRPLSAIFTT | 1940 | 4.27e+06 | – | –
SEQ ID NO 83 (designed binder, FN3 domain) MLPAPKNLVVSRVTEDSARLSWTAPDAAFDSFYIYYYESSGTGEAIVLTVPGSERSYDLTGLKPGTEYFVDIGGVKGGSYSLPLSAIFTT | 1480 | 1.93e+06 | – | –
SEQ ID NO 294 (designed binder, FN3 domain) MLPAPKNLVVSRVTEDSARLSWTAPDAAFDSFSIIYSEWNVTGEAIVLTVPGSERSYDLTGLKPGTEYDVWIEGVKGGGMSKPLSAISTT | 174 | 1.44e+06 | – | –
SEQ ID NO 286 (designed binder, FN3 domain) MLPAPKNLVVSRVTEDSARLSWTAPDAAFDSFNIYYPEFPVRGEAIVLTVPGSERSYDLTGLKPGTEYVVSIWGVKGGTQSWPLSAIFTT | 118 | 1.27e+06 | – | –
SEQ ID NO 274 (designed binder, FN3 domain) MLPAPKNLVVSRVTEDSVRLSWTAPDAAFDSFAISYEEWWVHGEAIVLTVPGSERSYDLTGLKPGTEYSVVIPGVKGGLYSWTLSAISTT | 44 | 522000 | – | –
SEQ ID NO 292 (designed binder, FN3 domain) MLPAPKNLVVSRVTEDSARLSWTAPDAAFDSFDIAYWELTPSGEAIELLVPGSERSYDLTGLKPGTEYRVDIIGVKGGFISEPLGATFTT | 296 | 2.62e+06 | – | –
SEQ ID NO 308 (designed binder, FN3 domain) MLPAPKNLVVSEVTEDSARLSWQGVARAFDSFLITYREQIFAGEVIVLTVPGSERSYDLTGLKPGTEYPVWIQGVKGGSPSAPLSAISTT | 50 | 609000 | – | –
SEQ ID NO 291 (designed binder, FN3 domain) MLPAPKNLVVSRVTEDSARLSWTAPDAAFDSFHIEYEEPETEGEAIYLHVPGSERSYDLTGLKPGTEYKVLIRGVKGGSYSIPLQAPFTT | 1780 | 3.83e+06 | – | –
SEQ ID NO 253 (designed binder, FN3 domain) MLPAPKNLVVSRVTEDSARLSWTAPDAAFDSFTIEYWETIGGGEAIVLTVPGSERSYDLTGLKPGTEYYVGIYGVKGGWWSRPLSAIFTT | 1140 | 2.8e+06 | – | –
SEQ ID NO 277 (designed binder, FN3 domain) MLPAPKNLVVSRVTEDSARLSWTAPDAAFDSFWINYYEGIGEGEAIVLTVPGSERSYDLTGLKPGTEYYVDISGVKGGSYSLPLSAIFTT | 598 | 3.11e+06 | – | –
SEQ ID NO 309 (designed binder, FN3 domain) MLPAPKNLVVSRVTEDSARLSWTAPDAAFDSFIIDYLELDQEGEAIVLTVPGSERSYDLTGLKPGTEYAVYIFGVKGGYPSTPLSAIFTT | 1100 | 3.14e+06 | – | –
SEQ ID NO 281 (designed binder, FN3 domain) MLPAPKNLVVSRVTEDSARLSWTAPDAAFDSFYIDYDEIHDWGEAIVLTVPGSERSYDLTGLKPGTEYAVQIGGVKGGSFSWTLSAIFTT | 48 | 1.07e+06 | – | –
SEQ ID NO 290 (designed binder, FN3 domain) MLPAPKNLVVSRVTEDSARLSWTAPDAAFDSFFYLEQAWGGEAIVLTVPGSERSYDLTGLKPGTEYWVEITGVKGGYASSPLSAIFTT | 237 | 2.81e+06 | – | –
SEQ ID NO 248 (designed binder, FN3 domain) MGSLPAPKNLVVSRVTEDSARLSWTAPDAAFDSFAIPYAEPSPTGEAIVLTVPGSERSYDLTGLKPGTEYPVWIQGVKGGSPSAPLSAEFTT | 55 | 832000 | – | –
SEQ ID NO 247 (designed binder, FN3 domain) MLPAPKNLVVSRVTEDSARLSWTAPDAAFDSFYIEWTYKGEAIVLTVPGSERSYDLTGLKPGTEYFVGIPGVKGGKSSYPLSAIFTT | 17 | 916000 | – | –
SEQ ID NO 273 (designed binder, FN3 domain) MLPAPKNLVVSRVTEDSARLSWTAPDAAFDSFTIFKDGEAIVLTVPGSERSYDLTGLKPGTEYYVYIYGVKGGYPSKPLSAIFTT | 508 | 4.65e+06 | – | –
